Laboratory results as given in patent US6514734.

Legend:
glucose oxidase [1] = experiment: glucose oxidase capture on discs with IgG polymer, illuminated against nonilluminated
glucose oxidase [2] = experiment: polyester discs with IgG polymer, not illuminated, washed; glucose oxidase at 0.1 mg/ml 1 h, washed; bound glucose oxidase read with glucose/HRP/TMB; n=5, SEM 0.021
glucose oxidase [3] = experiment: polyester discs with IgG polymer, illuminated, washed; glucose oxidase at 0.1 mg/ml 1 h, washed; bound glucose oxidase read with glucose/HRP/TMB; n=5, SEM 0.059
bovine thrombin (bovine) = bovine thrombin (bovine) (UniProt P00735); experiment: cell-based or functional assay
[4] = target: biotin derivatized horseradish peroxidase (horseradish) (UniProt P00433); experiment: glass rods with photoimmobilized streptavidin polymer, biotin-HRP at 9 µg/ml 1 h, washed, TMB peroxidase substrate; average of 3
[5] = target: biotin derivatized horseradish peroxidase (horseradish) (UniProt P00433); experiment: glass rods with adsorbed (nonilluminated) streptavidin polymer, biotin-HRP at 9 µg/ml 1 h, washed, TMB peroxidase substrate; average of 3
[6] = target: biotin derivatized horseradish peroxidase (horseradish) (UniProt P00433); experiment: biotin-HRP bound to glass rods, adsorbed against photoimmobilized streptavidin polymer
[7] = target: tritium labeled human thrombin (human) (UniProt P00734); experiment: 3H-thrombin at 2 µg/ml, 1 h, on PU coated with photoimmobilized hirudin polymer (25 µg/cm^2 added); scintillation counting
[8] = target: tritium labeled human thrombin (human) (UniProt P00734); experiment: 3H-thrombin at 2 µg/ml, 1 h, on SR coated with photoimmobilized hirudin polymer (1.0 µg/cm^2 added); scintillation counting
[9] = target: tritium labeled human thrombin (human) (UniProt P00734); experiment: 3H-thrombin at 2 µg/ml, 1 h, on PU coated with photoimmobilized hirudin polymer (5.0 µg/cm^2 added); scintillation counting
[10] = target: tritium labeled human thrombin (human) (UniProt P00734); experiment: 3H-thrombin at 2 µg/ml, 1 h, on PE coated with photoimmobilized hirudin polymer (1.0 µg/cm^2 added); scintillation counting
[11] = target: tritium labeled human thrombin (human) (UniProt P00734); experiment: 3H-thrombin at 2 µg/ml, 1 h, on PE coated with photoimmobilized hirudin polymer (25 µg/cm^2 added); scintillation counting
[12] = target: tritium labeled human thrombin (human) (UniProt P00734); experiment: 3H-thrombin binding, PU coated with 25 µg/cm^2 hirudin polymer against uncoated PU
[13] = target: tritium labeled human thrombin (human) (UniProt P00734); experiment: 3H-thrombin at 2 µg/ml, 1 h, on PE coated with photoimmobilized hirudin polymer (5.0 µg/cm^2 added); scintillation counting
[14] = target: tritium labeled human thrombin (human) (UniProt P00734); experiment: 3H-thrombin at 2 µg/ml, 1 h, on SR coated with photoimmobilized hirudin polymer (5.0 µg/cm^2 added); scintillation counting
[15] = target: tritium labeled human thrombin (human) (UniProt P00734); experiment: 3H-thrombin binding, PE coated with 25 µg/cm^2 hirudin polymer against uncoated PE
[16] = target: tritium labeled human thrombin (human) (UniProt P00734); experiment: 3H-thrombin at 2 µg/ml, 1 h, on PU coated with photoimmobilized hirudin polymer (1.0 µg/cm^2 added); scintillation counting
[17] = system: hirudin polymer (photoreactive polyacrylamide containing hirudin ligands)

biotin derivatized horseradish peroxidase (horseradish), sequence (P00433 31-338): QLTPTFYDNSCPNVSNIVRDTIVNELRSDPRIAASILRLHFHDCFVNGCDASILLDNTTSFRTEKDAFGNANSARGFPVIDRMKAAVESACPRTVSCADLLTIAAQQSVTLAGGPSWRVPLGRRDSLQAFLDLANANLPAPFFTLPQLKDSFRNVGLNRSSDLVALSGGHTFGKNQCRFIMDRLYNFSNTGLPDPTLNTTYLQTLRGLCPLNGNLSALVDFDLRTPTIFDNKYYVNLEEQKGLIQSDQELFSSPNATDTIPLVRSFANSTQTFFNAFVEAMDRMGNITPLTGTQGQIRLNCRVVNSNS

## IgG polymer (photoreactive polyacrylamide containing tritiated rabbit anti-glucose oxidase IgG ligands) (antibody)
Glucose oxidase [1]
  percent greater activity, illuminated against nonilluminated: 61%
Glucose oxidase [2]
  IgG Activity (A655): 0.669 A655
Glucose oxidase [3]
  IgG Activity (A655): 1.08 A655

## recombinant hirudin
Bovine thrombin (bovine)
  specific activity (antithrombin units per mg of hirudin); remaining thrombin activity on chromogenic substrate Chromozym TH: 11700 ATU/mg

## streptavidin polymer (photoreactive polyacrylamide containing streptavidin ligands) (from UniProt P22629 37-163)
[4]
  Absorbance of Biotin-HRP: 1 absorbance
[5]
  Absorbance of Biotin-HRP: 0.285 absorbance
[6]
  fold less peroxidase activity than covalent streptavidin polymer: 3.5 fold

## hirudin polymer (photoreactive polyacrylamide containing hirudin ligands)
[7]
  Bound thrombin: 0.28 µg/cm^2
Bovine thrombin (bovine)
  specific activity (antithrombin units per mg of hirudin); remaining thrombin activity on chromogenic substrate Chromozym TH: 10200 ATU/mg
[8]
  Bound thrombin: 0.004 µg/cm^2
[9]
  Bound thrombin: 0.137 µg/cm^2
[10]
  Bound thrombin: 0.02 µg/cm^2
[11]
  Bound thrombin: 0.2 µg/cm^2
[12]
  fold greater thrombin binding than uncoated biomaterial: 23 fold
[13]
  Bound thrombin: 0.014 µg/cm^2
[14]
  Bound thrombin: 0.047 µg/cm^2
[15]
  fold greater thrombin binding than uncoated biomaterial: 200 fold
[16]
  Bound thrombin: 0.028 µg/cm^2

## bovine thrombin
[17]
  decrease in antithrombin activity after incorporation of hirudin into the polymer: only a 13% decrease in its activity
